Target: T1, human ORAI1 (65-301) (Homo sapiens, UniProt Q96D31, E106Q/N223A)
T1 construct: human ORAI1 (65-301) with an N-terminal FLAG tag; made in house; host or cells: Pichia pastoris GS115 (microsomal membranes)
Assay: Pichia membrane flotation assay, membranes containing ORAI1 (65-301)
Format: binding
Conditions: sucrose gradient, Western blotting
Method: A membrane flotation assay was used to evaluate binding of these recombinant STIM 1 proteins to ORAI1. For these experiments ORAI1 (65-301) was expressed, an N-terminally truncated ORAI1 protein that forms functional Ca^2+ channels in mammalian cells (Li, Z., et al., J Biol Chem 282, 29448-29456 (2007)), in the yeast Pichia pastoris. Microsomal membranes were prepared from P pastoris expressing ORAI1 (65-301), layered at the bottom of a discontinuous sucrose gradient, and centrifuged. After centrifugation, the recombinant ORAI 1 was recovered near the top of the gradient in the fraction visually identified as containing membranes (FIG. 2A), as expected for an integral membrane protein.
STIM 1, ORAI 1, and D3 cpV/D4 cpV expression constructs were engineered as described herein. Recombinant STIM 1 fragments were expressed in E coli, purified, and characterized by CD spectroscopy and SEC-MALLS. Binding of STIM 1 fragments to ORAI1 channels in their normal bilayer environment was assessed in a flotation assay, using microsomal membranes prepared from the yeast P pastoris and containing human ORAI1 (65-301). Binding of STIM1 fragments to recombinant ORAI^CT was assessed in a pulldown assay using GST-tagged ORAI1^CT.
P pastoris strain GS115 was transformed with SalI-linearized pPIC3.5K-ORAI1 by electroporation and selected on plates lacking histidine. H is transformants were further grown in the presence of 0.25-4 mg/mL G418 to select for yeast that had integrated multiple copies of pPIC3.5K into the genome. Selected colonies capable of growth on 0.5-4 mg/mL G418 were grown in small-scale culture, induced with methanol as detailed below, and their level of ORAI expression determined by Western blotting for the FLAG tag. P pastoris transformants were grown in minimal dextrose medium lacking histidine and induced with 0.5% methanol for 6-18 h. Cells were pelleted at 3,000×g for 15 min at 4° C. and resuspended in breaking buffer containing 50 mM sodium phosphate, 1 mM TCEP, 1 mM EDTA, 5% glycerol and complete protease inhibitor cocktail (Roche). […]

T1 sequence (Q96D31 65-301 E106Q/N223A): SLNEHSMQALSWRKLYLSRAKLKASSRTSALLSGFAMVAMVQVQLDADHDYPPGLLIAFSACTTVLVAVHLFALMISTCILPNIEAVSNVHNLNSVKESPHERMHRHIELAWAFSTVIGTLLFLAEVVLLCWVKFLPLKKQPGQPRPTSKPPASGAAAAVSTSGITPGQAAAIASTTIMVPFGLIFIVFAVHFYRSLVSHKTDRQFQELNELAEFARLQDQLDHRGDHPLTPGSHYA

Substance	binding to ORAI1 in membrane flotation
STIM1^CT: cytoplasmic region of STIM1, mouse residues 233-685, His-tagged recombinant protein expressed in E coli	rose with the membranes into the upper part of the gradient
STIM1 (233-463): truncated mouse STIM1 cytoplasmic fragment, residues 233-463, His-tagged recombinant protein	did not bind detectably
STIM1 (233-498): truncated mouse STIM1 cytoplasmic fragment, residues 233-498, His-tagged recombinant protein	clearly bound ORAI
